Experimental data published in publication PMC5789848, “HTLV-1 Tax plugs and freezes UPF1 helicase leading to nonsense-mediated mRNA decay inhibition”.

T1: UPF1-HD (Homo sapiens, UniProt Q92900-2 295-914)
T1 sequence: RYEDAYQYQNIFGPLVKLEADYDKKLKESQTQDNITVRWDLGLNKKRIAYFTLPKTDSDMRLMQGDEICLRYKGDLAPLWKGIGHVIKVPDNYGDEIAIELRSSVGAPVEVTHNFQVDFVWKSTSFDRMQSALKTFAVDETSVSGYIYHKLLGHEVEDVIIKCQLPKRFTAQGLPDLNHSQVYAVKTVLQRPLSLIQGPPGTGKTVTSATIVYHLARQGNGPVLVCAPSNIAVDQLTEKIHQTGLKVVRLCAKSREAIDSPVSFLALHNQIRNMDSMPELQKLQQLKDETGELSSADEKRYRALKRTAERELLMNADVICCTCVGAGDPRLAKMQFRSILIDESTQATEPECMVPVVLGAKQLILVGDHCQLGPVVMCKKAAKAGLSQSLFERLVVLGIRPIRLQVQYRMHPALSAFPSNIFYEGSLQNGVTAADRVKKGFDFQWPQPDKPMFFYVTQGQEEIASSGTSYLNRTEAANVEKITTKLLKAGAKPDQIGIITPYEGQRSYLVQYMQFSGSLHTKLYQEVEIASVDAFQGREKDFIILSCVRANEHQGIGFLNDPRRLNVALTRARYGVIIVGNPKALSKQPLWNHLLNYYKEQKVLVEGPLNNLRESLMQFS


Legend:
[1] = biological target: T1, UPF1-HD; test: pull-down; 200 mM NaCl; BLI: 20 mM HEPES pH 7.5, 150 mM K acetate, 2 mM Mg acetate, 1 mM DTT, 6.3% glycerol, 0.1% NP-40; EMSA: 20 mM MES pH 6.0, 150 mM K acetate, 2 mM DTT, 0.2 ug/ul BSA, 6% glycerol, 30 C; pull-down: BLI-like buffer, 30 C then 4 C, 200 mM NaCl wash; conditions: protein: recombinant; tags: C-terminal His6 (CBP N-terminal and/or His6 per Methods); label: 3' biotin (BtnTg); single strand
[2] = biological target: T1, UPF1-HD; test: EMSA; UPF1-HD 0-10 nM, RNA 1 nM; BLI: 20 mM HEPES pH 7.5, 150 mM K acetate, 2 mM Mg acetate, 1 mM DTT, 6.3% glycerol, 0.1% NP-40; EMSA: 20 mM MES pH 6.0, 150 mM K acetate, 2 mM DTT, 0.2 ug/ul BSA, 6% glycerol, 30 C; pull-down: BLI-like buffer, 30 C then 4 C, 200 mM NaCl wash; conditions: protein: recombinant; tags: C-terminal His6 (CBP N-terminal and/or His6 per Methods); label: 32P; single strand

| Binder | binding result [1] | binding result [2] |
| --- | --- | --- |
| CGUCCAUCUGGUCAUCUAGUGAUAUCAUCG (ssRNA) [30-mer ssRNA 3'-biotin (pull-down)] | binds |  |
| CGUCCAUCUGGUCAUCUAGUGAUAUCAUCG (ssRNA) [30-mer ssRNA (EMSA)] |  | binds |
